Reference: patent publication US20050221395A1, “Methods and products based on oligomerization of stress proteins” (priority 2002, published 2005)
Where “and” joins values, the source holds several entries; their conditions need not be identical. Equal entries are not always repeated.

How the values were obtained:
[1] = ATPase activity, luciferin-luciferase luminescence assay (geldanamycin inhibitable); assay type: biochemical; conditions: for ATPase: gp96 loaded with AH1 19mer peptide; for ATPase activity of SEC fractions (rate of ATP hydrolysis per mg protein): SEC fractions of human tumor derived gp96-peptide complex (FIG. 6)
Method: Finally, ATPase activity of each fraction was determined based on the loss of ATP using a luciferin-luciferase luminescence assay. Values are reported as the rate of ATP hydrolysis per mg protein. […] The ATPase activity was in the dimer containing fractions with minimal activity in the high molecular weight aggregate and monomer fractions.
ATPase activity was measured as the loss of ATP following 4 hr. of incubation at 37° C. using a luciferin-luciferase luminescence assay. Values are reported as the rate of ATP hydrolysis per mg protein and represent only the activity that is geldanamycin inhibitable to ensure specificity for the hsp90 family of heat shock proteins.
The assay is performed as follows. Gp96 samples (2 μL, 500 μg/mL in PBS) were mixed with 2 μL of a solution comprising a 10 fold molar excess ATP in PBS containing 12.5 mM MgCl2, and either 20% (v/v) DMSO or DMSO containing […] geldanamycin. This mixture was incubated at 37° C. for 4 hr. Samples were then diluted to 100 μL with PBS and the ATP contained in 50 μL of each sample was quantified using the ROCHE CLSII bioluminescence ATP assay kit. Bioluminescence was measured using a Molecular Devices Lmax luminometer. The difference in ATP concentration between uninhibited and Geldanamycin-inhibited measurements reflects the amount of ATP hydrolysis specific to gp96. Rates were calculated from this differential and expressed as nmoles of ATP hydrolyzed per mg protein per hr.

[2] = test system: AH1 peptide-specific CTLs co-cultured with RAW264.7 cells; assay: hybrid antigen re-presentation assay (IFN-γ by ELISA); assay type: cell-based, mouse; conditions: for IFN-γ response (T-cell stimulation): 10 μg/mL or diluted with unloaded gp96 at 1:3, 1:10 or 1:30, APCs and CTLs (FIG. 7); for ability to stimulate T-cells: heated at 60° C. for 10 min
Method: For this purpose, a hybrid antigen re-presentation bioassay system was developed in which the mouse antigen, AH1 peptide, for which a mouse CD8 T-cell line is available, was exchanged in vitro onto human tumor derived hsp. The gp96-peptide complex was then tested for its ability to facilitate antigen re-presentation and antigen-specific T-cell stimulation.
The antigen presenting cell line, RAW264.7 (ATCC #TIB-71), is an Abelson murine leukemia virus transformed macrophage cell line, which originated from the BALB/c strain (H-2^d). The CTL line specific for the murine CT26 tumor derived AH1 epitope was obtained from P. Srivastava (U. of Conn. Medical Center). They were re-stimulated on a weekly basis with the AH1 peptide plus irradiated BALB/c splenocytes. The 9 amino acid AH1 peptide epitope ([…]) and the 19mer peptide ([…]) which contained this epitope were obtained from Sigma Genosys 1442 lake Front Circle, The Woodlands, Tex. 77380-3600.
AH1 19mer peptide was added to purified gp96 preparations at a ratio of 50:1 peptide to protein and the mixture incubated at 37° C. for 30 mm. Unbound peptide was removed by 4 cycles of spin dialysis with 10 volumes of PBS using 30K MWCO Centricon spin filter units (Millipore). Total protein was determined by the Bradford assay.
The in vitro antigen re-presentation assay has been described. Briefly, 10^4 AH1 peptide-specific CTLs (day 8 post stimulation) were co-cultured with 10^4 RAW264.7 cells in 96-well flat bottom plates. In vitro loaded gp96 samples at 10 μg/mL were analyzed neat or diluted with unloaded gp96 at the indicated amounts in order to maintain constant protein concentration. Protein samples and controls were added to the wells and incubated at 37° C. for 18 hr. Following centrifugation, the supernatants were harvested for analysis of IFN-γ levels by ELISA (R&D Systems). Reported values represent the average of six replicates. AH1 9mer peptide served as a positive control and unloaded gp96, AH1 19mer peptide and media alone as negative controls. Additional negative controls were provided by applying identical sets of samples to plates that contained either CTLs or APCs only.
The hybrid re-presentation assay measures the ability of human gp96, loaded with AH1 19mer peptide, to deliver antigen to mouse APCs to facilitate re-presentation leading to simulation of antigen specific T-cells. […] The second and third panels are controls for CTLs and APCs alone. Each data set contains media alone, unloaded gp96 and AH1 19mer as negative controls and AH1 9mer peptide, which can exchange directly onto surface MHC I molecules, as the positive control. Gp96/AH1 19mer complex was applied at 10 μg/mL or diluted with unloaded gp96 at 1:3, 1:10 or 1:30.

[3] = % dimer by size exclusion chromatography (SEC); assay type: physicochemical; conditions: for % Dimer: Superose 6 column, gp96 loaded with AH1 19mer peptide; for dimeric form by SEC: mild heat treatment
Method: Gp96-peptide complex was isolated from murine CT-26 tumors. Separate aliquots of each preparation were either maintained at 4° C. (untreated) or subjected to mild heat treatment to denature the complex.
HPLC size exclusion chromatography is currently being optimized and has been run under a few different formats. The column was either a TSK 3000SWXL (Toso Haus) or a Superose 6 (Amersham Pharmacia) equilibrated in 10 mM phosphate buffer, pH 7.1, with 300 mM NaCl. All experiments were run at room temperature on a Waters Alliance or HP 1100 HPLC systems at a flow rate of 0.5 mL/min. The following results for human tumor derived gp96 (reported in Table 3, below) were all analyzed on the Superose 6 column. % dimer values represent the area percent of the dimer peak relative to total peak area.

[4] = test system: Tumor specific T-cell; assay: antigen re-presentation and T-cell activation measured by IFN-γ release; assay type: cell-based, murine
Method: Re-presentation of antigenic peptides by hsps is another biological activity of significance. […] Immune response mediated by RAW264.7 APCs and CTLs specific to the peptide of the gp96 complex was measured by IFN-γ levels secreted by the CTLs. IFN-γ is a cytokine that is known in the art to be an indicator of general immune status; it also plays a major role in tumor recognition and rejection. […] A re-presentation assay is described in section 8, by way of example and not limitation.
The same samples were then analyzed for antigen re-presentation and T-cell activation as measured by IFN-γ expression.

[5] = NECA ligand binding
Method: Dimer content also correlates with the ability of gp96 to bind NECA. Using the gp96-peptide complex isolated from CT-26 tumors, aliquots of each preparation were also analyzed for NECA ligand binding.

human endometrial: gp96 purified from human endometrial tumor, loaded in vitro with AH1 19mer peptide (RVTYHSPSYVYHQFERRAK)
ATPase ([1]; heated at 60° C. for 10 min): 0 nmol/mg/h
ATPase ([1]; untreated): 8.5 ± 0.3 nmol/mg/h and 9.4 ± 0.5 nmol/mg/h
IFN-γ response (T-cell stimulation) [2]: dose dependent IFN-γ response
ability to stimulate T-cells [2]: abolished
% Dimer ([3]; heated at 60° C. for 10 min): 0%
% Dimer ([3]; untreated): 86% and 83%

recombinant gp96: samples of recombinant gp96 incubated at various temperatures for 10 minutes (FIG. 8)
ATPase activity ([1]; incubated at the indicated temperatures for 10 minutes (FIG. 8)): loss of ATPase activity

Fractions 8-10: SEC fractions of human ovarian tumor derived gp96-peptide complex representing the dimer
ATPase activity of SEC fractions (rate of ATP hydrolysis per mg protein) [1]: highest

human renal: gp96 purified from human renal cell carcinoma, loaded in vitro with AH1 19mer peptide
ATPase ([1]; heated at 60° C. for 10 min): 0 nmol/mg/h
ATPase ([1]; untreated): 10.3 ± 0.1 nmol/mg/h
IFN-γ response (T-cell stimulation) [2]: specific and dose dependent stimulation of T-cells
ability to stimulate T-cells [2]: abrogated
% Dimer ([3]; heated at 60° C. for 10 min): 0%
% Dimer ([3]; untreated): 84%

fractions 2-5: SEC fractions of human ovarian tumor derived gp96-peptide complex containing mostly higher molecular weight aggregates
ATPase activity of SEC fractions (rate of ATP hydrolysis per mg protein) [1]: significantly less

fractions 11-15: SEC fractions of human ovarian tumor derived gp96-peptide complex: monomeric species, degradation products and lower molecular weight species
ATPase activity of SEC fractions (rate of ATP hydrolysis per mg protein) [1]: significantly less

human gp96-peptide complex: human gp96-peptide complex used in accelerated stability (mild heat) study
ATPase activity ([1]; mild heat treatment): abolished
dimeric form by SEC [3]: converted dimeric protein to high molecular weight aggregates

unloaded gp96: human tumor derived gp96 not loaded with AH1 19mer peptide; negative control and diluent
IFN-γ response (T-cell stimulation) [2]: no stimulation

B1: gp96-peptide complex isolated from CT-26 tumors: Gp96-peptide complex isolated from murine CT-26 tumors; aliquots kept at 4° C. or heat treated (protein, UniProt P08113 22-802, looked up)
Endoplasmin: DDEVDVDGTVEEDLGKSREGSRTDDEVVQREEEAIQLDGLNASQIRELREKSEKFAFQAEVNRMMKLIINSLYKNKEIFLRELISNASDALDKIRLISLTDENALAGNEELTVKIKCDKEKNLLHVTDTGVGMTREELVKNLGTIAKSGTSEFLNKMTEAQEDGQSTSELIGQFGVGFYSAFLVADKVIVTSKHNNDTQHIWESDSNEFSVIADPRGNTLGRGTTITLVLKEEASDYLELDTIKNLVRKYSQFINFPIYVWSSKTETVEEPLEEDEAAKEEKEESDDEAAVEEEEEEKKPKTKKVEKTVWDWELMNDIKPIWQRPSKEVEEDEYKAFYKSFSKESDDPMAYIHFTAEGEVTFKSILFVPTSAPRGLFDEYGSKKSDYIKLYVRRVFITDDFHDMMPKYLNFVKGVVDSDDLPLNVSRETLQQHKLLKVIRKKLVRKTLDMIKKIADEKYNDTFWKEFGTNIKLGVIEDHSNRTRLAKLLRFQSSHHSTDITSLDQYVERMKEKQDKIYFMAGSSRKEAESSPFVERLLKKGYEVIYLTEPVDEYCIQALPEFDGKRFQNVAKEGVKFDESEKTKESREATEKEFEPLLNWMKDKALKDKIEKAVVSQRLTESPCALVASQYGWSGNMERIMKAQAYQTGKDISTNYYASQKKTFEINPRHPLIRDMLRRIKEDEDDKTVMDLAVVLFETATLRSGYLLPDTKAYGDRIERMLRLSLNIDPEAQVEEEPEEEPEDTSEDAEDSEQDEGEEMDAGTEEEEEETEKESTEKDEL
modifications: CT-26 tumor derived, complexed with peptides
notes: Gp96-peptide complex isolated from murine CT-26 tumors; aliquots kept at 4° C. or heat treated
Tumor specific T-cell activation (IFN-γ release) ([4]; 49° C. at 15 min): 0 pg/mL
Tumor specific T-cell activation (IFN-γ release) ([4]; 49° C. at 25 min): 0 pg/mL
Tumor specific T-cell activation (IFN-γ release) ([4]; 49.5° C. at 30 min): 3150 pg/mL
Tumor specific T-cell activation (IFN-γ release) ([4]; 60° C. at 60 min): 9350 pg/mL
Tumor specific T-cell activation (IFN-γ release) ([4]; 60° C. at 120 min): 8100 pg/mL
Specific NECA activity ([5]; 4° C. (untreated)): 1.68 μg NECA bound gp96/μg gp96 and 1.96 μg NECA bound gp96/μg gp96 and 3.27 μg NECA bound gp96/μg gp96
Specific NECA activity ([5]; 49° C. at 15 min): 1.97 μg NECA bound gp96/μg gp96
Specific NECA activity ([5]; 49° C. at 25 min): 1.80 μg NECA bound gp96/μg gp96
Specific NECA activity ([5]; 49.5° C. at 30 min): 0.12 μg NECA bound gp96/μg gp96
Specific NECA activity ([5]; 60° C. at 30 min): 0.04 μg NECA bound gp96/μg gp96 and 0.07 μg NECA bound gp96/μg gp96
Specific NECA activity ([5]; 60° C. at 60 min): 0.08 μg NECA bound gp96/μg gp96
Specific NECA activity ([5]; 60° C. at 120 min): 0.10 μg NECA bound gp96/μg gp96
% Dimer by SEC ([3]; 4° C. (untreated)): 84.44% and 87% and 75.8%
% Dimer by SEC ([3]; 49° C. at 15 min): 74%
% Dimer by SEC ([3]; 49° C. at 25 min): 54%
% Dimer by SEC ([3]; 49.5° C. at 30 min): 0%
% Dimer by SEC ([3]; 60° C. at 30 min): 0%
% Dimer by SEC ([3]; 60° C. at 60 min): 0%
% Dimer by SEC ([3]; 60° C. at 120 min): 0%
dimeric form by SEC [3]: rapidly converts to higher molecular weight aggregates
